Here are results for 1 substance from US7312058B2, “Mutant serine acetyltransferase” (priority 2003, dated 2007).

The subject of data set [1] is serine acetyltransferase (SAT). The protocol: Acetyl coenzyme A and other chemicals used were from Sigma Chemical Co. (St. Louis, Mo., USA).
The cells were sonicated and the pellet was separated by centrifugation at 13000 rpm. The SAT-containing protein fractions in the resulting supernatant were precipitated by 5 volumes of saturated (NH4)2SO4 and pellets were dissolved in 2 ml of buffer (pH 7.5, 50 mM potassium phosphate and 100 mM KCl). The obtained solution was added to 0.1 ml of reaction mixture (500 mM Tris-HCl (pH 8.5), 5 mM L-serine, 0.1 mM acetyl coenzyme A) and incubated at 37° C. for 10 min. The reaction was stopped by adding 0.3 ml of ethanol followed by centrifugation at 13000 rpm. 0.95 ml of 0.24 mM DTNB (5,5-dithio-bis-2-nitrobenzoate) solution was added to supernatant and mixture was incubated for 15 min. The SAT activity was assayed by measuring the absorbance at 412 nm.

A further data set relates to E. coli strain MG1655. The experiment in a line: L-cysteine production by test-tube fermentation of strains carrying a mutant cysE plasmid. It is filed as cell-based. The source says:
The E. coli strain MG1655 (ATCC47076, ATCC700926) was used as a parental strain for evaluation of effect of enhanced expression of mutant cysE gene on L-cysteine production.
Plasmids pMW-PompC-cysEX (containing mutant cysEX gene encoding a mutant SAT in which Thr167 is replaced with Ala, which is described in the U.S. Pat. No. 6,218,168) and pMW-PompC-cysE5 were introduced into the E. coli strain MG1655. The resulting strains MG1655/pMW-PompC-cysEX and MG1655/pMW-PompC-cysE5 were cultivated overnight with shaking at 34° C. in 2 ml of nutrient broth supplemented with 100 mg/l of ampicillin. 0.2 ml of the obtained cultures were inoculated into 2 ml of a fermentation medium containing ampicillin (100 mg/l) in 20×200 mm test tubes, and cultivated at 34° C. for 42 hours with a rotary shaker at 250 rpm. The composition of the fermentation medium was the following: 15.0 g/l of (NH4)2SO4, 1.5 g/l of KH2PO4, 1.0 g/l of MgSO4, 20.0 g/l of CaCO3, 0.1 mg/l of thiamine, 1% of LB, 4% of glucose, 300 mg/l of L-methionine and 0.5 g/l of Na2S2O3.
After cultivation, the amount of L-cysteine which had accumulated in the medium was determined by the method described by Gaitonde, M. K. (Biochem. J., 104:2, 627-33 (1967)).

As for “cysE5 (RTRDPARP; randomized region of SAT protein only)”, the “Residual activity in presence 25 μM cysteine, %” value in data set [1] (25 μM cysteine) was found to be 100%. In data set [1] (protein fraction from LE392 cysE::KmR carrying the plasmid, 5 mM L-serine, 0.1 mM acetyl coenzyme A, 37° C., 10 min), the “Specific activity, relative units” value was 900 relative units. Also, the “sensitivity to feedback inhibition by L-cysteine” value in data set [1] (statement from Table 2 and FIG. 5) was “no sensitivity to feedback inhibition by L-cysteine”. The “effect of overexpression on cysteine productivity” value in the data set with E. coli strain MG1655 is on record as “improved cysteine productivity”.
